Tests used:
[1] = system: RNase M5 WT (Bacillus subtilis)
[2] = system: RNase M5 WT;ribosomal protein L18 (Bacillus subtilis;Bacillus subtilis)

**Q.** Which K half [1] does the source give for 5S rRNA precursor (pre-5S) here?
**A.** 2000 nM

**Q.** What about the binding signal (fold higher affinity than without L18) [2] of the same substance?
**A.** 10
